± gives the uncertainty stated by the source.
Test: abundance fitness (aPCA) (normalised: wild type 0, dead -1); higher = more abundant; growth selection in yeast, the domain comes from the species named
Details: Homo sapiens
For “Scaffold attachment factor B1 I65W, Q15424”, the abundance fitness was -0.457 ± 0.051. In the case of “Scaffold attachment factor B1 I65Y, Q15424”, the abundance fitness is reported as -0.535 ± 0.14. Substance “Scaffold attachment factor B1 I75A, Q15424” has an abundance fitness of -0.304 ± 0.071. “Scaffold attachment factor B1 I75C, Q15424” gave an abundance fitness of -0.28 ± 0.086. For “Scaffold attachment factor B1 I75D, Q15424”, the abundance fitness was -0.449 ± 0.11. Work on “Scaffold attachment factor B1 I75E, Q15424” yielded an abundance fitness of -0.459 ± 0.09. Work on “Scaffold attachment factor B1 I75F, Q15424” yielded an abundance fitness of -0.371 ± 0.095. For “Scaffold attachment factor B1 I75G, Q15424”, the abundance fitness was -0.264 ± 0.057. Substance “Scaffold attachment factor B1 I75H, Q15424” has an abundance fitness of -0.543 ± 0.13. In the case of “Scaffold attachment factor B1 I75K, Q15424”, the abundance fitness is reported as -0.253 ± 0.06. “Scaffold attachment factor B1 I75L, Q15424” gave an abundance fitness of -0.099 ± 0.054. “Scaffold attachment factor B1 I75M, Q15424” gave an abundance fitness of -0.19 ± 0.065. “Scaffold attachment factor B1 I75N, Q15424” gave an abundance fitness of -0.219 ± 0.058. In the case of “Scaffold attachment factor B1 I75P, Q15424”, the abundance fitness is reported as -0.31 ± 0.084. “Scaffold attachment factor B1 I75Q, Q15424” gave an abundance fitness of -0.311 ± 0.071. “Scaffold attachment factor B1 I75R, Q15424” gave an abundance fitness of -0.285 ± 0.057. With “Scaffold attachment factor B1 I75S, Q15424” the abundance fitness was -0.257 ± 0.056. “Scaffold attachment factor B1 I75T, Q15424” gave an abundance fitness of -0.194 ± 0.064. For “Scaffold attachment factor B1 I75V, Q15424”, the abundance fitness was -0.113 ± 0.049. “Scaffold attachment factor B1 I77A, Q15424” showed an abundance fitness of -0.157 ± 0.062. For “Scaffold attachment factor B1 I77C, Q15424”, the abundance fitness was -0.187 ± 0.061. “Scaffold attachment factor B1 I77D, Q15424” showed an abundance fitness of -0.212 ± 0.071. Substance “Scaffold attachment factor B1 I77E, Q15424” has an abundance fitness of -0.102 ± 0.092. For “Scaffold attachment factor B1 I77F, Q15424”, the abundance fitness was -0.076 ± 0.058. Substance “Scaffold attachment factor B1 I77G, Q15424” has an abundance fitness of -0.195 ± 0.064. “Scaffold attachment factor B1 I77H, Q15424” gave an abundance fitness of -0.163 ± 0.056. Substance “Scaffold attachment factor B1 I77K, Q15424” has an abundance fitness of -0.136 ± 0.073. For “Scaffold attachment factor B1 I77L, Q15424”, the abundance fitness was -0.227 ± 0.064. For “Scaffold attachment factor B1 I77M, Q15424”, the abundance fitness was -0.305 ± 0.087. For “Scaffold attachment factor B1 I77N, Q15424”, the abundance fitness was -0.235 ± 0.073. “Scaffold attachment factor B1 I77P, Q15424” showed an abundance fitness of -0.381 ± 0.096. In the case of “Scaffold attachment factor B1 I77Q, Q15424”, the abundance fitness is reported as -0.262 ± 0.077. “Scaffold attachment factor B1 I77R, Q15424” showed an abundance fitness of -0.156 ± 0.055. For “Scaffold attachment factor B1 I77S, Q15424”, the abundance fitness was -0.08 ± 0.051. For “Scaffold attachment factor B1 I77V, Q15424”, the abundance fitness was -0.163 ± 0.066. “Scaffold attachment factor B1 I77W, Q15424” showed an abundance fitness of -0.119 ± 0.053. In the case of “Scaffold attachment factor B1 K45A, Q15424”, the abundance fitness is reported as -0.013 ± 0.27. With “Scaffold attachment factor B1 K45R, Q15424” the abundance fitness was 0.218 ± 0.2. “Scaffold attachment factor B1 K45V, Q15424” showed an abundance fitness of -0.929 ± 0.46. Work on “Scaffold attachment factor B1 K54A, Q15424” yielded an abundance fitness of -0.181 ± 0.061. For “Scaffold attachment factor B1 K54C, Q15424”, the abundance fitness was -0.361 ± 0.063. Substance “Scaffold attachment factor B1 K54D, Q15424” has an abundance fitness of -0.329 ± 0.075. “Scaffold attachment factor B1 K54E, Q15424” gave an abundance fitness of -0.207 ± 0.079. “Scaffold attachment factor B1 K54F, Q15424” showed an abundance fitness of -0.249 ± 0.062. “Scaffold attachment factor B1 K54G, Q15424” gave an abundance fitness of -0.234 ± 0.05. Substance “Scaffold attachment factor B1 K54H, Q15424” has an abundance fitness of -0.401 ± 0.11. Work on “Scaffold attachment factor B1 K54I, Q15424” yielded an abundance fitness of -0.271 ± 0.077. Work on “Scaffold attachment factor B1 K54L, Q15424” yielded an abundance fitness of -0.28 ± 0.048. “Scaffold attachment factor B1 K54M, Q15424” showed an abundance fitness of -0.443 ± 0.087. Substance “Scaffold attachment factor B1 K54N, Q15424” has an abundance fitness of -0.444 ± 0.075. In the case of “Scaffold attachment factor B1 K54P, Q15424”, the abundance fitness is reported as -0.25 ± 0.082. Substance “Scaffold attachment factor B1 K54Q, Q15424” has an abundance fitness of -0.115 ± 0.066. “Scaffold attachment factor B1 K54R, Q15424” showed an abundance fitness of -0.063 ± 0.047. For “Scaffold attachment factor B1 K54S, Q15424”, the abundance fitness was -0.259 ± 0.072. Work on “Scaffold attachment factor B1 K54T, Q15424” yielded an abundance fitness of -0.189 ± 0.057. “Scaffold attachment factor B1 K54V, Q15424” showed an abundance fitness of -0.221 ± 0.049. “Scaffold attachment factor B1 K54W, Q15424” gave an abundance fitness of -0.255 ± 0.056. For “Scaffold attachment factor B1 K54Y, Q15424”, the abundance fitness was -0.157 ± 0.059. “Scaffold attachment factor B1 K62A, Q15424” gave an abundance fitness of -0.073 ± 0.052. Substance “Scaffold attachment factor B1 K62C, Q15424” has an abundance fitness of -0.27 ± 0.057. “Scaffold attachment factor B1 K62D, Q15424” gave an abundance fitness of -0.403 ± 0.089. Substance “Scaffold attachment factor B1 K62E, Q15424” has an abundance fitness of -0.287 ± 0.053. “Scaffold attachment factor B1 K62F, Q15424” gave an abundance fitness of -0.366 ± 0.078. Substance “Scaffold attachment factor B1 K62G, Q15424” has an abundance fitness of -0.191 ± 0.048. In the case of “Scaffold attachment factor B1 K62H, Q15424”, the abundance fitness is reported as -0.211 ± 0.066. Substance “Scaffold attachment factor B1 K62I, Q15424” has an abundance fitness of -0.336 ± 0.078. “Scaffold attachment factor B1 K62L, Q15424” gave an abundance fitness of -0.204 ± 0.054. “Scaffold attachment factor B1 K62M, Q15424” showed an abundance fitness of -0.254 ± 0.078. Work on “Scaffold attachment factor B1 K62N, Q15424” yielded an abundance fitness of -0.231 ± 0.096. Work on “Scaffold attachment factor B1 K62P, Q15424” yielded an abundance fitness of -0.728 ± 0.065. “Scaffold attachment factor B1 K62R, Q15424” showed an abundance fitness of -0.089 ± 0.048. For “Scaffold attachment factor B1 K62T, Q15424”, the abundance fitness was -0.212 ± 0.072. Work on “Scaffold attachment factor B1 K62V, Q15424” yielded an abundance fitness of -0.246 ± 0.052. Work on “Scaffold attachment factor B1 K62W, Q15424” yielded an abundance fitness of -0.366 ± 0.065. Substance “Scaffold attachment factor B1 K62Y, Q15424” has an abundance fitness of -0.285 ± 0.087. Work on “Scaffold attachment factor B1 K63A, Q15424” yielded an abundance fitness of -0.202 ± 0.053. “Scaffold attachment factor B1 K63C, Q15424” showed an abundance fitness of -0.234 ± 0.048. “Scaffold attachment factor B1 K63D, Q15424” gave an abundance fitness of -0.255 ± 0.094. With “Scaffold attachment factor B1 K63F, Q15424” the abundance fitness was -0.432 ± 0.061. With “Scaffold attachment factor B1 K63H, Q15424” the abundance fitness was -0.541 ± 0.1. Substance “Scaffold attachment factor B1 K63I, Q15424” has an abundance fitness of -0.394 ± 0.09. With “Scaffold attachment factor B1 K63L, Q15424” the abundance fitness was -0.237 ± 0.044. Work on “Scaffold attachment factor B1 K63M, Q15424” yielded an abundance fitness of -0.43 ± 0.07. For “Scaffold attachment factor B1 K63P, Q15424”, the abundance fitness was -0.61 ± 0.054. “Scaffold attachment factor B1 K63Q, Q15424” gave an abundance fitness of -0.085 ± 0.079. Work on “Scaffold attachment factor B1 K63R, Q15424” yielded an abundance fitness of -0.144 ± 0.055. “Scaffold attachment factor B1 K63T, Q15424” gave an abundance fitness of -0.238 ± 0.081. For “Scaffold attachment factor B1 K63V, Q15424”, the abundance fitness was -0.185 ± 0.056. “Scaffold attachment factor B1 K63W, Q15424” showed an abundance fitness of -0.398 ± 0.057. “Scaffold attachment factor B1 K63Y, Q15424” gave an abundance fitness of -0.42 ± 0.067. Work on “Scaffold attachment factor B1 L31A, Q15424” yielded an abundance fitness of -0.333 ± 0.069. With “Scaffold attachment factor B1 L31C, Q15424” the abundance fitness was -0.553 ± 0.069. “Scaffold attachment factor B1 L31D, Q15424” showed an abundance fitness of -0.498 ± 0.075. In the case of “Scaffold attachment factor B1 L31E, Q15424”, the abundance fitness is reported as -0.496 ± 0.076. “Scaffold attachment factor B1 L31F, Q15424” showed an abundance fitness of -0.417 ± 0.098. Substance “Scaffold attachment factor B1 L31G, Q15424” has an abundance fitness of -0.536 ± 0.06. With “Scaffold attachment factor B1 L31H, Q15424” the abundance fitness was -0.575 ± 0.072. In the case of “Scaffold attachment factor B1 L31I, Q15424”, the abundance fitness is reported as -0.17 ± 0.06. Substance “Scaffold attachment factor B1 L31K, Q15424” has an abundance fitness of -0.66 ± 0.093. Work on “Scaffold attachment factor B1 L31M, Q15424” yielded an abundance fitness of -0.338 ± 0.087. Work on “Scaffold attachment factor B1 L31P, Q15424” yielded an abundance fitness of -0.748 ± 0.071. Work on “Scaffold attachment factor B1 L31Q, Q15424” yielded an abundance fitness of -0.623 ± 0.08. “Scaffold attachment factor B1 L31R, Q15424” gave an abundance fitness of -0.509 ± 0.051. For “Scaffold attachment factor B1 L31S, Q15424”, the abundance fitness was -0.547 ± 0.068. Work on “Scaffold attachment factor B1 L31T, Q15424” yielded an abundance fitness of -0.53 ± 0.1. “Scaffold attachment factor B1 L31V, Q15424” gave an abundance fitness of -0.188 ± 0.06. “Scaffold attachment factor B1 L31W, Q15424” showed an abundance fitness of -0.628 ± 0.052. Work on “Scaffold attachment factor B1 L31Y, Q15424” yielded an abundance fitness of -0.471 ± 0.07. Work on “Scaffold attachment factor B1 L34A, Q15424” yielded an abundance fitness of -0.482 ± 0.064. “Scaffold attachment factor B1 L34C, Q15424” gave an abundance fitness of -0.321 ± 0.079.
